The labels stand for the following.
B1: B7H3-h1702-L2-3024 (antibody-drug conjugate of h1702 with drug-linker 3024) (antibody, human IgG1, lambda)
heavy: not shown
light: QTVVTQEPSFSVSPGGTVTLTCGLSSGSVSTSHYPSWYQQTPGQAPRMLIYNTNTRSSGVPDRFSGSILGNKAALTITGAQADDESDYYCAIHVDRDIWVFGGGTKLTVLGQPKANPTVTLFPPSSEELQANKATLVCLISDFYPGAVTVAWKADGSPVKAGVETTKPSKQSNNKYAASSYLSLTPEQWKSHRSYSCQVTHEGSTVEKTVAPTECS
modifications: drug-linker 3024 coupled through a propylthiol linker (L2) to lysine residues of the antibody; positions not given; average y = 2.05 per antibody
notes: also called h1702-3024
B2: B7H3-h1703-L2-3024 (antibody-drug conjugate of h1703 with drug-linker 3024) (antibody, human IgG1, kappa, V domains shown)
VH: QVQLQESGGGLVQPGGSLRLSCAASGFTFSSYAMSWVRQAPGKGLEWVSAISGSGGSTYYADSVKGRYTISRDNSKNTLYLQMNSLRAEDTAVYYCAKGVGPVHALDVWGQGTTVTVSS
VL: DIRLTQSPSSLSASVGDRVTITCRASQSISTYLNWYQQKPGKAPILLINAVSGLQSGVPSRFSGSGSGTHFTLTITSLQPEDFATYYCQQSYSTPMWTFGQGTKVEIKR
modifications: drug-linker 3024 coupled through a propylthiol linker (L2) to lysine residues of the antibody; positions not given; average y = 1.62 per antibody
notes: also called h1703-3024
B3: B7H3-h1702DS-cys-3024 (antibody-drug conjugate of h1702-DS with drug-linker 3024 on cysteines) (antibody, human IgG1, lambda)
heavy: not shown
light: DTVVTQEPSFSVSPGGTVTLTCGLSSGSVSTSHYPSWYQQTPGQAPRMLIYNTNTRSSGVPDRFSGSILGNKAALTITGAQADDESDYYCAIHVDRDIWVFGGGTKLTVLGQPKANPTVTLFPPSSEELQANKATLVCLISDFYPGAVTVAWKADGSPVKAGVETTKPSKQSNNKYAASSYLSLTPEQWKSHRSYSCQVTHEGSTVEKTVAPTEC
modifications: drug-linker 3024 on cysteine thiols after TCEP reduction; positions not given; average y = 3.55 per antibody
B4: B7H3-h1702-cys-3024 (antibody-drug conjugate of h1702 with drug-linker 3024 on cysteines) (antibody, human IgG1, lambda)
heavy: not shown
light: B1 light
modifications: drug-linker 3024 on cysteine thiols after TCEP reduction; positions not given; average y = 3.5 per antibody
B5: B7H3-h1704-3-cys-3024 (antibody-drug conjugate of humanized h1704-3 with drug-linker 3024 on cysteines) (antibody, human IgG1, kappa, V domains shown)
VH: EVQLVESGGGLVKPGGSLRLSCAASGFTFSRYGMSWVRQAPGKGLEWVSAISSGGGSIYYPDTVKGRLTISRDNAKNTLYLQMNSLRAEDTAVYYCTRHYLLFEMDYWGQGTTVTVSS
VL: DIVLTQSPSFLSASVGDRVTITCKASQNVNTAVAWYQQKPGKAPKLLIFSASNRYTGVPSRFSGSGSGTDFTLTISSLQPEDVAAYFCQQYSSSLTFGGGTKLEIKR
modifications: drug-linker 3024 on cysteine thiols after TCEP reduction; positions not given; average y = 3.4 per antibody
notes: Antibody-drug conjugate made from antibody h1704-3 (IgG1, kappa)
B6: B7H3-h1702-L2-MC-MMAF (antibody-drug conjugate of h1702 with MC-MMAF) (antibody, human IgG1, lambda)
heavy: not shown
light: B1 light
modifications: MC-MMAF coupled through a propylthiol linker (L2) to lysine residues of the antibody; positions not given; average y = 1.76 per antibody
notes: also called h1702-MMAF
B7: B7H3-h1703-L2-MC-MMAF (antibody-drug conjugate of h1703 with MC-MMAF) (antibody, human IgG1, kappa, V domains shown)
VH: B2 VH
VL: B2 VL
modifications: MC-MMAF coupled through a propylthiol linker (L2) to lysine residues of the antibody; positions not given; average y = 2.29 per antibody
notes: also called h1703-MMAF
B8: h1702 antibody (fully human anti-B7H3 full-length antibody) (antibody, human IgG1, lambda)
heavy: not shown
light: B1 light
notes: IgG1 heavy chain, lambda light chain; naked antibody expressed in HEK293E cells; also called B7H3-h1702
B9: h1703 antibody (fully human anti-B7H3 full-length antibody) (antibody, human IgG1, kappa, V domains shown)
VH: B2 VH
VL: B2 VL
notes: IgG1 heavy chain, kappa light chain; naked antibody; also called B7H3-h1703

The values that follow come from patent WO2019024911A1 (dated 2019).

One assay has as its target T1, human B7H3 antigen for screening and detection, 2Ig-B7H3 (R&D cat#1949-B3-050/CF) (human, UniProt Q5ZPR3 29-245).
T1 construct: Commercial product; also called human 2Ig-B7H3
T1 sequence: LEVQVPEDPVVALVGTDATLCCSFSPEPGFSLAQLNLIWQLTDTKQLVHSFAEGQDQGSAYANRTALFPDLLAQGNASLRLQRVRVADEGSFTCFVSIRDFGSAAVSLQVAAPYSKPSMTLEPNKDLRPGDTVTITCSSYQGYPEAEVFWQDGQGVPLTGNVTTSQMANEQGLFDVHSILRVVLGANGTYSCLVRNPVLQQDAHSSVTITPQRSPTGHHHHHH
Put plainly: SPR (Biacore T200), ADC captured on Protein A chip, antigen in flow, 1:1 Langmuir fit.
The term Kd denotes the equilibrium constant for the complex coming apart. A high value points to weaker binding. Consider B1, for which the Kd was found to be 580 nM.
Same read-out and setting: as for B2, the figure is 219 nM.

For the next assay, the target named is T2, human B7H3 antigen for detection, 4Ig-B7H3 (SinoBiological cat#11188-H08H) (human, UniProt Q5ZPR3 29-461).
T2 construct: Commercial product; also called human 4Ig-B7H3
T2 sequence: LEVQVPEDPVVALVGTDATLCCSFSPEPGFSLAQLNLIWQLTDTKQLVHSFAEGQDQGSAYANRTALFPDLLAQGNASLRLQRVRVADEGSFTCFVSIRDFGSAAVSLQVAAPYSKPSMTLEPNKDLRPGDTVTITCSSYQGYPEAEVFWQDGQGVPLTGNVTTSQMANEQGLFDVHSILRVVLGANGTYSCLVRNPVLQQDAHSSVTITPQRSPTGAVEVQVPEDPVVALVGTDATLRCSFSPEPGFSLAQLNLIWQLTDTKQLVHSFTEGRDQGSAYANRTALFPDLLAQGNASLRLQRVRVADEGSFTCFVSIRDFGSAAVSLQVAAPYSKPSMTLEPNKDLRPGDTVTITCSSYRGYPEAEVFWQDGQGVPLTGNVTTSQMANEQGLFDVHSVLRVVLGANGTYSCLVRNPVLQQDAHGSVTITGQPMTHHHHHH
The assay is described as above.
B1 yielded an equilibrium dissociation constant (Kd) of 10.5 nM.

In a further assay the target is T2, human B7H3 antigen for detection, …. Description: ELISA, antigen coated at 1 ug/ml, HRP anti-human IgG Fc detection (column of the single value not certain). For orientation: ELISA stands for enzyme-linked immunosorbent assay.
Broadly, the EC50 is the concentration needed to bring the measured effect to its halfway point. Low values mean a more potent agent, high ones a less potent agent. In turn, B3 returned an EC50 of 0.3 nM.
The molecule B4 gave an EC50 of 0.29 nM.
B5 had an EC50 of 0.09 nM.

A further assay addresses T1, human B7H3 antigen for screening and …. Description: SPR (Biacore T200), ADC captured on Protein A chip, antigen in flow, 1:1 Langmuir fit (column of the single value inferred). On the technique in general: Surface plasmon resonance follows binding to a sensor surface in real time, without labels.
In turn, B6 came in with an equilibrium dissociation constant (Kd) of 452 nM.
Take B7: binding was characterised by a dissociation constant (Kd) of 193 nM.

A further assay concerns the target T2, human B7H3 antigen for detection, …. The assay is described as above.
Take B3: the affinity, expressed as Kd, was 10.6 nM.
With B4, the Kd was 11.2 nM.
B5 gave a Kd of 0.778 nM.

Another assay concerns the target T1, human B7H3 antigen for screening and …. Put plainly: SPR (Biacore T200), antibody captured on Protein A chip, antigen in flow, 1:1 Langmuir fit.
B8: the Kd came out at 797 nM.
For B9, the Kd is 448 nM.

Another assay concerns the target T2, human B7H3 antigen for detection, …. The description is as above.
In the case of B8, the Kd turned out to be 8.55 nM.

The target in a further assay is T1, human B7H3 antigen for screening and …. Description: ELISA, antigen coated at 1 ug/ml, HRP anti-human IgG Fc detection.
Turning to B8, the midpoint of the response, the EC50, lay at 0.11 nM.
Still for that read-out and setting: as for B1, the figure is 0.17 nM.
The molecule B6 displayed a concentration giving a half-maximal response (EC50) of 0.16 nM.
Regarding B7, the concentration giving a half-maximal response (EC50) stood at 2.36 nM.
B2 displayed an EC50 of 15.1 nM.
Same read-out and setting: with B9 the figure was 10.3 nM.

The next assay has as its target T2, human B7H3 antigen for detection, …. The assay is described as above.
In turn, B8 showed a half-maximal effective concentration (EC50) of 0.16 nM.
Same read-out and setting: with B1 the figure was 0.26 nM; with B6, 0.18 nM.
Molecule B7 returned an EC50 of 3.08 nM.
Molecule B2 returned a half-maximal effective concentration (EC50) of 4.97 nM.
B9: the response was half-maximal at 2.1 nM (EC50).

A further assay deals with T3, murine B7H3 antigen for screening and detection (R&D cat#1397-B3-050/CF) (mouse, UniProt Q8VE98 29-244).
T3 construct: Commercial product; also called mouse B7H3
T3 sequence: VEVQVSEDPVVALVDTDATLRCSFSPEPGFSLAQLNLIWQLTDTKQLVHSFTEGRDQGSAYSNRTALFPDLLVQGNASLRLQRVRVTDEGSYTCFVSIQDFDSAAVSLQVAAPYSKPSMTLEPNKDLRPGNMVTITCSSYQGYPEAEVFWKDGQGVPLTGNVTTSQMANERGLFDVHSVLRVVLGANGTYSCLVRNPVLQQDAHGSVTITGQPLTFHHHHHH
Put plainly: ELISA, mouse B7H3 coated at 1 ug/ml, HRP anti-human IgG Fc detection.
For B8, it took 18.1 nM to reach a half-maximal effect (EC50).
With B1, the concentration for a half-maximal effect (EC50) was determined as 131 nM.
B6 registered an EC50 of 59 nM.
The same measure, in the same setting: with B7 the figure was 116 nM.
The molecule B2 displayed an EC50 of 115 nM.
In turn, B9 had an EC50 of 86.7 nM.
